# Substitutions are numbered along the chain they refer to.
# T1: integrin αvβ8 (human, UniProt P06756)
# T1 chain 1: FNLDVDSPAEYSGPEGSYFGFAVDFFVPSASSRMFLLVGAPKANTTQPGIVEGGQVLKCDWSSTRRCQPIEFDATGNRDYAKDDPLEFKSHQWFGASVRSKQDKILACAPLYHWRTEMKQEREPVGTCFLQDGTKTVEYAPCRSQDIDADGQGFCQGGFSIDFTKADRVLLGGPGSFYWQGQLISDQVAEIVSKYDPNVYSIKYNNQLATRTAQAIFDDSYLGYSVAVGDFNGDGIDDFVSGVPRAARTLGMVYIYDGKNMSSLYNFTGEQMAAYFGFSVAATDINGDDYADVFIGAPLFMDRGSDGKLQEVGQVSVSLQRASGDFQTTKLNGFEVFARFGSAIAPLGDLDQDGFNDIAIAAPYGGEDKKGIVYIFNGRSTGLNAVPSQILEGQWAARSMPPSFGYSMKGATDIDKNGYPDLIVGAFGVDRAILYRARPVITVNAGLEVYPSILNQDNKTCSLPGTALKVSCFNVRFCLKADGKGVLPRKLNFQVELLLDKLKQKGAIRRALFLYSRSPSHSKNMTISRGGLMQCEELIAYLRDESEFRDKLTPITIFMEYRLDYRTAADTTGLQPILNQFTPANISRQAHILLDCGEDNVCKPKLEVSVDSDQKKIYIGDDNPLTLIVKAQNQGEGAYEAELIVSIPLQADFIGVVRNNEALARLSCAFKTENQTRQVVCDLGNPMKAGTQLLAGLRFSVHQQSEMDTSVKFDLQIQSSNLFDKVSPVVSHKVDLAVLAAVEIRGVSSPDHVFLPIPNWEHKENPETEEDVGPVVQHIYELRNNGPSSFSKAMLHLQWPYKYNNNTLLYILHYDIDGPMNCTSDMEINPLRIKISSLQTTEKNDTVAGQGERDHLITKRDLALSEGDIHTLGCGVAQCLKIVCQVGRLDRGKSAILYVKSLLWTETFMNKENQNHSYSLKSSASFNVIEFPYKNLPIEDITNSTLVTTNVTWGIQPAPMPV
# T1 chain 2: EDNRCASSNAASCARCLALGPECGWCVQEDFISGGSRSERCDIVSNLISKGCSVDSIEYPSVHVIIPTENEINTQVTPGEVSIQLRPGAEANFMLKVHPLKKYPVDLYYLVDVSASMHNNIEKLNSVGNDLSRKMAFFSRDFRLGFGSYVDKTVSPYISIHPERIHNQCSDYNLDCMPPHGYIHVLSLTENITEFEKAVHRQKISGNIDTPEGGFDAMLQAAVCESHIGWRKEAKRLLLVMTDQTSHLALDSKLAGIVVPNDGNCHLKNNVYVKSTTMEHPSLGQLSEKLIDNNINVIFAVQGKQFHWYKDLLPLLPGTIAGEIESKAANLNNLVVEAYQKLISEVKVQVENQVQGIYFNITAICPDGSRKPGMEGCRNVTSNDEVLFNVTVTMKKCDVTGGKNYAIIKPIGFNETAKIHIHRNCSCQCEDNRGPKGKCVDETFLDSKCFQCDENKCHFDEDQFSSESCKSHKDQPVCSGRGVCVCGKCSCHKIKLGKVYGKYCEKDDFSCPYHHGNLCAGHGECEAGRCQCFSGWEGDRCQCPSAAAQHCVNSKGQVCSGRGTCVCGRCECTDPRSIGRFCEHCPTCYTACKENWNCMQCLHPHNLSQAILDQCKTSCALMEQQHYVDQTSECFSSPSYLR
# T2: integrin αvβ6 (human, UniProt P06756)
# T2 chain 1: T1 chain 1
# T2 chain 2: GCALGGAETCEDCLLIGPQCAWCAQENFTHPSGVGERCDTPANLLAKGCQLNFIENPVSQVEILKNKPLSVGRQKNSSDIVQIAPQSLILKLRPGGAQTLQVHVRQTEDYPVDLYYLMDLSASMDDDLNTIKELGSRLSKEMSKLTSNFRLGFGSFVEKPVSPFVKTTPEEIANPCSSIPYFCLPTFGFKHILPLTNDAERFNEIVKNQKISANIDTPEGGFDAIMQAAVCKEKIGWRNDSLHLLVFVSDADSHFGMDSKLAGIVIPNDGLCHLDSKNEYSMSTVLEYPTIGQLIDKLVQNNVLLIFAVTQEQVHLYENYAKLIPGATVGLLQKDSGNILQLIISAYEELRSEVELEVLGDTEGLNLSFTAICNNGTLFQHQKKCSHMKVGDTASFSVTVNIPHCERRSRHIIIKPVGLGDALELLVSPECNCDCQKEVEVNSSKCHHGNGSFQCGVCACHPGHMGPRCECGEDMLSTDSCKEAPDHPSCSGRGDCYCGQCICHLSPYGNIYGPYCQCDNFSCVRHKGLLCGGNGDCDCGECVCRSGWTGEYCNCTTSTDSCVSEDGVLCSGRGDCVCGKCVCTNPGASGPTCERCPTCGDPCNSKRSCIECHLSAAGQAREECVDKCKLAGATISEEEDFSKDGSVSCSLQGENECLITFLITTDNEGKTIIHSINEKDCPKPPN
# B1: B8_BP-LATY (avb8_3_LATY) (designed binder)
# chain: TKCVVRFNFRGDLATYALKAVKDHLKKEGPHWNITTHNDDEVYLVVRGIHESDAKRIAKWVESTIPGISVETQCD
# B2: avb8_12 (LATI) (designed binder)
# chain: B1 chain with Y16I
# B3: B8_BP_dslf (avb8_3) (designed binder)
# chain: B1 chain with L13M, T15V
# Columns and labels:
# integrin αvβ8 [1] = biological target: T1, integrin αvβ8; assay: BLI
# integrin αvβ6 [2] = biological target: T2, integrin αvβ6; assay: BLI, at 500 nM
# integrin αvβ6 [3] = biological target: T2, integrin αvβ6; assay: BLI
# integrin αvβ6 [4] = biological target: T2, integrin αvβ6; assay: competition, hLAP1
# integrin αvβ8 [5] = biological target: T1, integrin αvβ8; assay: competition, hLAP1
binder,measurement,setting,value
B1,Kd,integrin αvβ8 [1],0.5 nM
same,binding result,integrin αvβ6 [2],no binding
B2,Kd,integrin αvβ6 [3],1.13 nM
B3,Kd,integrin αvβ8 [1],1.9 nM
same,binding result,integrin αvβ6 [4],no binding
same,IC50,integrin αvβ8 [5],2.68 nM
